According to US20150290289, “METHOD OF PROMOTING WOUND HEALING” (Agency for Science, Technology and Research, published 2015):
Changes are numbered by the printed parent chain.

T1: KSRP (KHSRP) (UniProt Q92945 Q92945:2-711)
T1 sequence: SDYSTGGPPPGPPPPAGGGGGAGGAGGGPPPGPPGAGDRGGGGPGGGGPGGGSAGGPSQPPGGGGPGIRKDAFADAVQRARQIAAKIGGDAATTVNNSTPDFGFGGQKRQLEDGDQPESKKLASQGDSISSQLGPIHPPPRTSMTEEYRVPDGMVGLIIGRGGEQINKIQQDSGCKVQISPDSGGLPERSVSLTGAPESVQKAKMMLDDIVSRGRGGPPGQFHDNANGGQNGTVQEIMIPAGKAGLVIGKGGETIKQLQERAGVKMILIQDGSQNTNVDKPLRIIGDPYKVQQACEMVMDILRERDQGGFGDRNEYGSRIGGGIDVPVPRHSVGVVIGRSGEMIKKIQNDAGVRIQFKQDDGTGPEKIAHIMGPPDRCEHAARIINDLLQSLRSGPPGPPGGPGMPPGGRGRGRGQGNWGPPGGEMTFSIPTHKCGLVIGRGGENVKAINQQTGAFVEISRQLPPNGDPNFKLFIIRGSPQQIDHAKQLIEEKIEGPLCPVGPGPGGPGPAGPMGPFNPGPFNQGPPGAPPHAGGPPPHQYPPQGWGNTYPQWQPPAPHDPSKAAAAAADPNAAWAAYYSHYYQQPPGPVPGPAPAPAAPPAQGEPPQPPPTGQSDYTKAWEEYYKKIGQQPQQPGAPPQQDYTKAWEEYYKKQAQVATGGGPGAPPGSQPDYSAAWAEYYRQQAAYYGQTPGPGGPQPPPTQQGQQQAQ

B1: pre-miR-198 wild type (ssRNA)
RNA: UCAUUGGUCCAGAGGGGAGAUAGGUUCCUGUGAUUUUUCCUUCUUCUCUAUAGAAUAAAUGA
B2: pre-miR-198 Mut-1 (ssRNA)
RNA: B1 RNA with G30C, G32C
modifications: [NONE]

Assays:
KSRP (KHSRP) [1] = target: T1, KSRP (KHSRP); test: EMSA; 0.5 uM KSRP, 5 mM MgCl2, 50 mM KCl, yeast tRNA, pH 7.4, room temperature; details: tags: recombinant, Origene; label: 32P-UTP; hairpin
Method: (§1) The pre-miR-198 substrate for gel retardation assay was prepared as described above. Pre-miR-198 transcripts with mutated terminal loop and stem sequences (FIG. 11B) were generated by mutating the parental plasmid (pBSKS) constructs with Quickchange site directed mutagenesis Kit (Stratagene). Recombinant KSRP protein (0.5 μM) was incubated with the wild type or mutant pre-miR-198 transcripts in 20 μl of reaction buffer containing 30 mM Tris HCl, pH 7.4, 5 mM MgCl₂, 50 mM KCl, 0.5 mM DTT, 40 u/ml of RNaseOUT, 250 μg/ml of yeast tRNA and 10% glycerol. After 30 min at room temperature, reaction products were resolved through 6% native polyacrylamide gel electrophoresis. Gel was dried and the protein RNA complex and unbound RNA were visualized by phosphorimaging.

KSRP (KHSRP) [2] = target: T1, KSRP (KHSRP); test: EMSA; binding abrogated; 0.5 uM KSRP; details: tags: recombinant, Origene; label: 32P-UTP; hairpin
Method: as §1

Binder	binding result (KSRP (KHSRP) [1])	binding result (KSRP (KHSRP) [2])
B1	binds	–
B2	–	no binding
